{"source": "paper PMC10643566", "about": "“Insights into the mechanism of SARS-CoV-2 main protease autocatalytic maturation from model precursors” (Communications Biology, 2023)", "key": {"[1]": {"target": "mature MPro^E290A (SARS-CoV-2)", "test": "enzyme kinetics (K_dimer from kcat/Km and the slope of rate vs the square of the protein concentration); FRET substrate at 200 µM, buffer B (25 mM Tris-HCl, pH 7, 50 mM NaCl, 1 mM TCEP), 28 °C; kcat/Km determined with equimolar GC373; dimer to monomers"}, "[2]": {"target": "mature MPro^R298A (SARS-CoV-2)", "test": "enzyme kinetics (K_dimer from kcat/Km and the slope of rate vs the square of the protein concentration); FRET substrate at 200 µM, buffer B (25 mM Tris-HCl, pH 7, 50 mM NaCl, 1 mM TCEP), 28 °C; kcat/Km determined with equimolar GC373; dimer to monomers"}}, "note": "pKd: −log10 of the molar value."}
{"substance": "mature MPro^E290A (enzyme)", "values": [{"measurement": "pKd", "setting": "[1]", "value": 3.45}]}
{"substance": "mature MPro^R298A (enzyme)", "values": [{"measurement": "pKd", "setting": "[2]", "value": 5.15}]}
